Biological target: fibronectin (FN) from human plasma (human) (UniProt P02751)
UniProt P02751, sequence (P02751 32-2477): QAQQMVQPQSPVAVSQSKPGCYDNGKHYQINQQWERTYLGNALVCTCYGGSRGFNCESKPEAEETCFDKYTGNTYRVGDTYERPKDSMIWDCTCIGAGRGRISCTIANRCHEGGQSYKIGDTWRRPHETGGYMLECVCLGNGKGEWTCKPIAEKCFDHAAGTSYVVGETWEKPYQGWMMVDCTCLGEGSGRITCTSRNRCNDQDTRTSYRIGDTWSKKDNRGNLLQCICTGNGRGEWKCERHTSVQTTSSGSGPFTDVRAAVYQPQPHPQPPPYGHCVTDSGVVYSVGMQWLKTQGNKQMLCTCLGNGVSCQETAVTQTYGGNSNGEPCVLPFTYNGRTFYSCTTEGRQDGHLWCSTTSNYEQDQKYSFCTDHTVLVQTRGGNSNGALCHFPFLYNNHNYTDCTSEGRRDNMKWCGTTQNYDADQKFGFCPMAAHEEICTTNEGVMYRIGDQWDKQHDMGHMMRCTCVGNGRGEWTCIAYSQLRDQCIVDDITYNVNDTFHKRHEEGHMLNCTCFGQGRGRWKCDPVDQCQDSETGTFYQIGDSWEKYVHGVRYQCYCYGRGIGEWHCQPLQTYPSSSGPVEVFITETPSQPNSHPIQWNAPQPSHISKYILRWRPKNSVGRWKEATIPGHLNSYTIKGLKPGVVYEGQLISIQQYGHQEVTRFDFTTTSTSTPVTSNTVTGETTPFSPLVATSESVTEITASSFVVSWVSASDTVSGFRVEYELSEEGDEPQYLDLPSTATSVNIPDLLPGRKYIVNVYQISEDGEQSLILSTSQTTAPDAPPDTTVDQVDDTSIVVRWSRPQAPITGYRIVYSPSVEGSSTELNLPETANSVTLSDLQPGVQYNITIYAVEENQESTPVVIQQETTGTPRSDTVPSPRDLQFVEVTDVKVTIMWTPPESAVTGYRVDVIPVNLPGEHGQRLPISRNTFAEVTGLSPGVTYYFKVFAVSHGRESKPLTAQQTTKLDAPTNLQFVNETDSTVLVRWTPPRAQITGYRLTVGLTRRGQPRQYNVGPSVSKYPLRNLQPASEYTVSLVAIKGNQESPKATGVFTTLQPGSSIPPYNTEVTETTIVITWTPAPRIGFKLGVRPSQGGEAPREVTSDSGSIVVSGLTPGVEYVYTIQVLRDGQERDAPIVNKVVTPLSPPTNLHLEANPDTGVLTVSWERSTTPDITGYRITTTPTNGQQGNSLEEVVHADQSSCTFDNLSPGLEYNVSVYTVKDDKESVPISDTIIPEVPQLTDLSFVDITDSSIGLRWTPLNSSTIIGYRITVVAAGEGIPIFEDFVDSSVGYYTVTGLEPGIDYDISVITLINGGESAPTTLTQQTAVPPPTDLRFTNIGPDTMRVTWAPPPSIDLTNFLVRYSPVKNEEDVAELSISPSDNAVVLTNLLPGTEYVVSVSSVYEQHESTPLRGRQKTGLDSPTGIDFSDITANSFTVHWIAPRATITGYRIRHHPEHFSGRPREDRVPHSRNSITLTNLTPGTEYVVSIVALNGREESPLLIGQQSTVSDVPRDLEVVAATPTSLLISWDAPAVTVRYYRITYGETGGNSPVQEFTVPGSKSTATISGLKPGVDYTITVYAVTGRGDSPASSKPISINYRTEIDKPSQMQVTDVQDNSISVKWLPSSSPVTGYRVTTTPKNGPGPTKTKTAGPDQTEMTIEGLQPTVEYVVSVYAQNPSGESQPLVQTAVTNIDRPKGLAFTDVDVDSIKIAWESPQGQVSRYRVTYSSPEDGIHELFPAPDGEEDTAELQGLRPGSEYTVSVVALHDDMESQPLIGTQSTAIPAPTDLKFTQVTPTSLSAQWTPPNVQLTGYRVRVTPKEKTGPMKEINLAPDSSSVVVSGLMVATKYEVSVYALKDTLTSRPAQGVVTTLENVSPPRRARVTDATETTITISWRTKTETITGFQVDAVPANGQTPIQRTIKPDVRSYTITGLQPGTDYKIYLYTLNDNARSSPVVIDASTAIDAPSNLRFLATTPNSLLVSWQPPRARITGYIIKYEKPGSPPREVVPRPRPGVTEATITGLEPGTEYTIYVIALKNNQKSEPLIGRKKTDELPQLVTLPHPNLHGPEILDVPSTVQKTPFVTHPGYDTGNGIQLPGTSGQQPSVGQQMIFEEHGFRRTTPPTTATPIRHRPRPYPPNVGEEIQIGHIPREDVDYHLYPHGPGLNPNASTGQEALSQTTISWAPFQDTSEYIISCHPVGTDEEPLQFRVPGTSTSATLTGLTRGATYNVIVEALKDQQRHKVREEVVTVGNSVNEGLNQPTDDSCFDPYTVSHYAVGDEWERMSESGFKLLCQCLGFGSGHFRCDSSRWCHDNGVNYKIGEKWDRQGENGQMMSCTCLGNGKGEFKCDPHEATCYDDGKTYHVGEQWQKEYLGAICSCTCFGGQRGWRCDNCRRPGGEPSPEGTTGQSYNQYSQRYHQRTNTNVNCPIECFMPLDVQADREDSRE

surface density of BMP-2 on PEA-FN: 8 ng/cm2
B1: BMP-2 (bone morphogenetic protein 2) (ligand)
chain: QAKHKQRKRLKSSCKRHPLYVDFSDVGWNDWIVAPPGYHAFYCHGECPFPLADHLNSTNHAIVQTLVNSVNSKIPKACCVPTELSAISMLYLDENEKVVLKNYQDMVVEGCGCR

From article doi:10.1101/2022.07.28.501818
